Reference: patent US20190017096A1

Target: Rab6a (Ras-related protein Rab-6A) (Homo sapiens (Human)) (UniProt P20340)
Experiment: cell-based or functional assay

Sequence of UniProt P20340 (P20340 whole entry): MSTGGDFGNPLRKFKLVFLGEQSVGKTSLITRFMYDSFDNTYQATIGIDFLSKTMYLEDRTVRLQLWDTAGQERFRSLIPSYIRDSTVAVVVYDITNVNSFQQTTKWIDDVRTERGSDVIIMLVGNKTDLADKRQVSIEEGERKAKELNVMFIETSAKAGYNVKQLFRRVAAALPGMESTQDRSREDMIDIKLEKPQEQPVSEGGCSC

| Substance | biotinylated substrate with Rab6a compared to Rab27a (in vitro prenylation, WB; untransduced 293 lysate, endogenous REP1, FIG. 9) | strength of the WB signal for biotinylated Rab6a (FIG. 3) compared to biotinylated Rab27a (FIG. 2), AAV-REP1 transduced cells | band intensity of biotinylated Rab6a (FIG. 3) compared to biotinylated Rab27a (FIG. 2), positive controls spiked with fish REP1 |
| --- | --- | --- | --- |
| human Rab escort protein 1 (REP1) (from UniProt P24386 1-653) | 2.5 fold | 10 fold | – |
| fish REP1 | – | – | 100 fold |
